Experimental data: patent publication US12065505B2, “Antibodies and antigen binding peptides for factor XIa inhibitors and uses thereof” (Bristol-Myers Squibb Company, priority 2021, dated 2024)
Changes are numbered by the printed parent chain. Where two headings read alike, the source gives them in different places.

Columns and labels:
[1] = test system: rabbit plasma clotting time (aPTT); assay: In vivo reversal of Compound A anticoagulant effect by Fab, rabbit plasma aPTT; conditions: Compound A 1 mg/kg IV, mean of 3 animals
Method: In vivo experiments were conducted in accordance with the regulations of the Animal Care and Use Committee of the Bristol-Myers Squibb Company. Rabbits (male New Zealand White, 2 to 4 kg) were instrumented with indwelling catheters in the central ear artery for blood sampling and marginal ear vein for substance administration. Compound A was administered as a constant intravenous infusion at a dose of 1.0 mg/kg over 10 minutes. Beginning 20 minutes after the Compound A infusion was complete, the antibody Fab fragment 26D5-75616-348-F10-Fab-SHORT was administered as a constant intravenous infusion at a dose of 160 mg/kg over 10 minutes. […]
The anticoagulant effects of Compound A were measured in activated partial thromboplastin time (aPTT). The aPTT was determined using ACTIN® FS (Siemens/Dade-Behring) following the directions in the package insert. […] The clotting time was the time in seconds from the moment calcium chloride was added until a clot was detected. […]

[2] = Competitive TR-FRET assay, mAbs (T0 and T24); format: binding; conditions: 37° C.; difference between T0 and T24 IC50s; IgG1f mAb format
Method: A competitive TR-FRET (time-resolved fluorescence resonance energy transfer) assay was developed to rank-order the dissociation of α-Compound A mAbs from Compound A as equilibrium is reached at 37° C. The assay buffer was HBS-N (10 mM HEPES, 150 mM NaCl, pH 7.4; GE Healthcare), 0.1% (w/v) BSA (bovine serum albumin; Sigma), 2% DMSO (dimethyl sulfoxide; Sigma). All reagents were prepared in assay buffer and dispensed in equal volumes into white 384 microplates with final volume of 20 μl per well at the following final concentrations: 4 nM COMPOUND 5, the biotinylated analog of COMPOUND 2, a 100 0.1 nM 7-pt titration of human α-Compound A antibodies, 0.1 nM europium-labeled α-mouse IgG (LANCE Eu-W1024; PerkinElmer), 5 nM streptavidin-D2 (Cisbio), and 4 nM mAb 26D5 VH_A10G_Y33A_S53P_M89V_G95A; VK_W32N_H38Q (P1-075621, the second-round optimization parent 26D5-295-B08 formatted with mouse IgG Fc). COMPOUND 5 and α-Compound A antibody titrations were added first to the microplate, and were subjected to an initial incubation at 37° C., 1000 rpm, for one hour to facilitate antibody binding to the compound. After the initial incubation period, the europium α-mouse IgG, streptavidin-D2, and 26D5-mouse IgG (P1-075621) were added sequentially, then the plate was returned to 37° C., 1000 rpm incubation. Microplates were read using a Perkin Elmer EnVision plate reader, and the measured FRET signal was defined as [665 nm]/[620 nm]*10,000. Microplates were read at 30 minutes (T0) and after 24 hour (T24) intervals. […]

[3] = SPR (Biacore) Protein A mAb capture, Compound A injected; conditions: 37° C., binding to Compound A, for rank ordering only
In short: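 Parent and affinity-matured IgG1f mAbs were captured at 2 ug/mL on a high-density protein A chip. Compound A was injected at 100–3 nM for 2 min, with at least 450 s dissociation, at 37 °C in PBS pH 7.4 with 0.05% Tween 20 and 2% DMSO. Apparent affinities were used for rank ordering only, because off-rates were too slow to measure.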

In the case of `C[C@@H]1CCC[C@H](n2cnc(-c3cc(Cl)ccc3-n3cc(Cl)nn3)cc2=O)c2cc(ccn2)-c2c(cnn2C(F)F)NC1=O` [Compound A, (5R,9S)-9-(4-(5-chloro-2-(4-chloro-1H-1,2,3-triazol-1-yl)phenyl)-6-oxopyrimidin-1(6H)-yl)-21-(difluoromethyl)-5-methyl-21H-3-aza-1(4,2)-pyridina-2(5,4)-pyrazolacyclononaphan-4-one, reference compound], the “rabbit plasma aPTT increase relative to baseline” value [1] is reported as “approximately 2 fold”.

B1: 26D5-GVR-Q-FT-Fab-LONG mAb: IgG1f mAb called P1-072226, S31 in place of R31, i.e. 26D5-GV-Q (VH SEQ ID NO: 82, VL SEQ ID NO: 99) (antibody, V domains shown)
VH: EVQLVESGGGLIQPGGSLRLSCAASGFTVSSNYMSWVRQAPGKGLEWVSFIYSGGRTYYADSVKGRFTISRDNSKNTLYLQMNSLRAEDTAVYYCARGGFGGGDYWGQGTLVTVSS
VL: DIQMTQSPSSVSASVGDRVTITCRASQGISSWLAWYQQKPGKAPKLLIYAASSLQSGVPSRFSGSGSGTDFTLTISSLQPEDFATYYCQQANSFPLTFGGGTKVEIK
For B1, the “T0-T24 IC50 shift (Δ)” value [2] was 63 nM.

B2: P1-072963: IgG1f mAb format of first round optimization progeny 26D5-295-B08; VH SEQ ID NO: 60, VL SEQ ID NO: 88 (antibody, V domains shown)
VH: B1 VH with Y33A, S53P, G98A
VL: B1 VL with W32N
For B2, the “T0-T24 IC50 shift (Δ)” value [2] was 20.5 nM.

B3: 26D5-75747-348-D07-mAb: human IgG1f/kappa mAb; VH SEQ ID NO: 57, VL SEQ ID NO: 90 (antibody, V domains shown)
VH: B1 VH with Y33A, M34F, F50Y, R97A, G98A
VL: B1 VL with W32Q, L33V, A50Y, A91G, S93E
With B3 the “T0-T24 IC50 shift (Δ)” value [2] was 4.3 nM, the Kd ([3]; apparent affinity, listed as 26D5-75747-0348-D07-mAb, read-out: KD) was less than 0.03 nM and the Kd ([3]; apparent affinity, read-out: KD) was less than 0.02 nM. The “Ka” value ([3]; apparent) was 2e+06 M⁻¹ s⁻¹ and the “Kd” value ([3]; apparent) was less than 5e-05 s⁻¹.
